Assay results published in the supplement of paper PMC12764529.
± gives the half width of the 95% confidence interval.

Columns and labels:
[1] = folding stability dG unfold from trypsin proteolysis; higher = more stable
Experimental: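 Folding stability of de novo designed mini-proteins (<80 aa, no Cys; designed by TrROS, TrMRF, ProteinMPNN and the joint model) was measured by cDNA display proteolysis with trypsin and chymotrypsin. Each protease was used at 11 concentrations in a threefold dilution series plus a no-protease condition. K50 was inferred by Bayesian fitting of sequencing counts, and dG unfold was derived against a sequence-predicted unfolded-state K50 (Tsuboyama et al. method). Sequences shown include variable-length N-terminal GS-type padding (SAGGSAGG...) inside a display construct carrying a PA tag. Rows were kept only if the AF2 dimer inter-PAE was >15, to exclude likely homo-oligomers.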

[2] = folding stability dG unfold (combined trypsin and chymotrypsin); higher = more stable
In short: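 Designed mini-proteins (under 80 residues, no cysteine) in a PA-tagged cDNA display construct were digested with trypsin and chymotrypsin. Each protease was used at 11 concentrations (threefold dilutions) plus a no-protease condition, followed by sequencing. K50 was inferred by Bayesian fitting of sequencing counts, and unfolding free energy was derived against a sequence-predicted unfolded-state K50 and a shared folded-state K50, per protease or combined. Only designs with AlphaFold2 dimer inter-PAE above 15 were kept.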

Sequence | folding stability dG unfold [1] [kcal/mol] | folding stability dG unfold [2] [kcal/mol]
SPAVRPLSAEFYDPRYTVEAPVYESEEGEPVLNIRFLVPEYELEIPFPLEDPEAVFESFAEDGVSLTLTDSA [r9_384_TrMRF] | 0.0201 ± 0.088 | -0.723 ± 0.17
SAGGSAGGSAGGKKVKIKIEIPGMSKEEIEKLAKELEKKGIKVEKIEVKPLPKVEVFEKKSAGGSAGGSAGG [r7_906_TrROS_Hall] | -0.602 ± 0.27 | < -1
SAGGSAGGSASLPEKLAQEAKEKILKENPDVEVTEIVVTKLPPEKYTVTIKTPDGKTETIPLSAGGSAGGSA [r18_423_JUSTAS] | -0.00229 ± 0.023 | -0.308 ± 0.1
SAGGSAGGSAGGHPVRVRITWPDGQQRTIPIPVDPENGQVTLEEIAKTISPEHGWKIEVFSAGGSAGGSAGG [r7_492_TrROS] | -0.107 ± 0.2 | -0.638 ± 0.51
SAGGSRQVIEWEFKDPKNGKPFEISIEYDEENGVPMVEIRDRNGEPNAVVPVPPDNADEALEKFGISAGGSA [r2_115_TrROS] | -0.903 ± 0.46 | < -1
SAGGSASMITSTLTDPSTGTSSTLPTEVLQKLLDENPPDSNLVLPTGPKPVTVKVEPEKGLATFTGSAGGSA [r15_350_JUSTAS] | 0.153 ± 0.039 | -0.989 ± 0.29
SAGGSAGGSASVSSPERFTVPRPDGTPVEVTLVEPEKGYYEVTDPATGERTRLPIEDIPPVSAGGSAGGSAG [r3_213_JUSTAS] | -0.607 ± 0.12 | < -1
SAGGSAMVPEDEGLIVVERDVPFDKAEEFVEEVIEELGIPPEKVKKIELFEEKVEDGPALRALVYLSAGGSA [r15_934_TrMRF] | -0.294 ± 0.32 | < -1
SAGGSAGGSAGGMKTYSVEELRARLEEEGKEPTLEELASLPGAKVELNKETKEATIVLKPSAGGSAGGSAGG [r7_180_TrROS_Hall] | 0.044 ± 0.16 | < -1
SAGGGAEEEAKKIAEELEKIGGVKKVEVEVKPKPDDSVEVKVKVEFEPPKPPKPPVVELPENGELVFKSAGG [r13_957_TrMRF] | -0.0749 ± 0.21 | < -1
SAGGSAGGSAGGSQELTIKIPPGEPDVRIFFPDGGEEHEIPPGDEREIELSPDKIAVQPSAGGSAGGSAGGS [r10_46_TrROS] | 0.763 ± 0.059 | -0.148 ± 0.25
SAGGSAGGSAGGGPSVAPFEVTELLSVSYVPGPRRFVAVVRLPDPERLVVVPVEDLPPGQSAGGSAGGSAGG [r7_304_TrMRF] | -0.941 ± 0.41 | < -1
SAGGSAGGMTAEEVAEWIADEFMENHPNIEIKPVATEDGEVKIDIRHPNSGMTHTFKIPPGQPLSAGGSAGG [r6_446_TrROS] | -0.796 ± 0.19 | < -1
SAGGSAGGSKIPIHIWVPPGGSPKKAKERIRRYIREQMPPGNKDMPIDDIKIDVHVMPPGQPVSAGGSAGGS [r12_384_TrROS] | -0.427 ± 0.9 | < -1
SAGGSAGGSMYRYTVTFPNTGTVLEKEFESLEEAKKYIPKDRPIKEIKVEPVEPPVSPEVLLVSAGGSAGGS [r12_851_JUSTAS] | -0.217 ± 0.18 | -0.651 ± 0.26
SAGGSAGGSAGGLSPESFYTVEVYNKDGTKLGPAQVVSTGTGKVVIPIEPDVEIILNPSSAGGSAGGSAGGS [r10_1257_JUSTAS] | 0.346 ± 0.17 | -0.136 ± 0.21
SAGGSAGGSAGGSGGSMEVSISEAPPEYLVVTVYDPATGKTTVRKVSPSEVKSLKYEGGSAGGSAGGSAGGS [r4_494_JUSTAS] | 0.274 ± 0.053 | < -1
SPIVTDLPPKEATRVEVEALVEELEAKGEPPREVVVYDPSRGVPLATIPVTSREELLAAVEAGRPFRVLLSA [r9_718_JUSTAS] | -0.697 ± 0.31 | < -1
SAGGSAGGSAGGKITIVVSASSPEEAKRFVGELKALGPADIKVIVVPAPKPLPADDPRAKSAGGSAGGSAGG [r7_261_TrMRF] | -0.177 ± 0.21 | < -1
SAGGSAGGSAALGDESLHRPVPVVSTSPVTTTTTLTLTPPNGVTVTESVTTTTTVYGSGAASAGGSAGGSAG [r3_380_JUSTAS] | 0.553 ± 0.025 | 0.172 ± 0.13
